Laboratory results published in article PMC8266642.

Biological target: T1, StrepHP1021 (HP1021) (Helicobacter pylori 26695) (UniProt O25665)
T1 sequence: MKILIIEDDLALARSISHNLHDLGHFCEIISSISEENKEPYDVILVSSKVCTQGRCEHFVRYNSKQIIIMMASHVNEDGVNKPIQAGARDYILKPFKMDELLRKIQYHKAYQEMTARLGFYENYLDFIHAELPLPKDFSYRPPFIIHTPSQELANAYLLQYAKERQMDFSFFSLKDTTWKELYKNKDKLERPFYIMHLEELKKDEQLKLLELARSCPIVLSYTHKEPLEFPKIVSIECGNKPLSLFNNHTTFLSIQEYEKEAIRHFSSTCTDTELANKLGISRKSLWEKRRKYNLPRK
Assay: EMSA
Details: EMSA: 50 mM Tris-HCl pH 8.0, 100 mM NaCl, 0.2% Triton X-100, 5 nM DNA, 37 C 20 min; 4% PAGE in 0.5x TBE or TB at 20-25 C. SPR: 50 mM Tris-HCl pH 8.0, 100 mM …

Sequence | binding
ATGATATTTATATGATATTTTTGGGTAATTTAAGATGAATATCGGTAGCGTTTTGAATAAATTTGTTACTACTTTTCACTTTATTACGCCAAATTTTCCCTTATTACAAACAACTTTGAAATAAATGATTTCCATTTAAAAATCAGCCTTATACTTCTAATAGGTTGCCTTGAGCAACACTTTAATACAAGGAGTCTAAATGAAAGACGCAAATTCGAAGCTATTCTTACTCC (double strand) [phyuA] | binds
GGAGTAAGAATAGCTTCGAATCTCTATTTTGAAAACCCCTATTTCAGGCTTTTGAGTTTTTTAGGCTCTAGTTTTATCCACCCCTTTGGATTTGATTGGTTAGTCCCAGATAGCTTTTTTTCTTATAGCGTGTTTAGAGTGGATAAATTATCGCTAGGGCTTGTTTTTTTGGCTTGCATTTTTTTGAGCACTAAACCATTGAAAAAATATAG (double strand) [FAM-HP0180 fragment] | binds more weakly
